Assay results as given in US6329339A, “Pharmaceutical antiviral composition comprising glycyrrhizic acid and at least one protein endowed with antiviral activity” (priority 1997, dated 2001).

B1: Bovine lactoferrin: bovine lactoferrin; lactoferrin supplied by SIGMA (protein, UniProt P24627 20-708, looked up)
Lactotransferrin: APRKNVRWCTISQPEWFKCRRWQWRMKKLGAPSITCVRRAFALECIRAIAEKKADAVTLDGGMVFEAGRDPYKLRPVAAEIYGTKESPQTHYYAVAVVKKGSNFQLDQLQGRKSCHTGLGRSAGWIIPMGILRPYLSWTESLEPLQGAVAKFFSASCVPCIDRQAYPNLCQLCKGEGENQCACSSREPYFGYSGAFKCLQDGAGDVAFVKETTVFENLPEKADRDQYELLCLNNSRAPVDAFKECHLAQVPSHAVVARSVDGKEDLIWKLLSKAQEKFGKNKSRSFQLFGSPPGQRDLLFKDSALGFLRIPSKVDSALYLGSRYLTTLKNLRETAEEVKARYTRVVWCAVGPEEQKKCQQWSQQSGQNVTCATASTTDDCIVLVLKGEADALNLDGGYIYTAGKCGLVPVLAENRKSSKHSSLDCVLRPTEGYLAVAVVKKANEGLTWNSLKDKKSCHTAVDRTAGWNIPMGLIVNQTGSCAFDEFFSQSCAPGADPKSRLCALCAGDDQGLDKCVPNSKEKYYGYTGAFRCLAEDVGDVAFVKNDTVWENTNGESTADWAKNLNREDFRLLCLDGTRKPVTEAQSCHLAVAPNHAVVSRSDRAAHVKQVLLHQQALFGKNGKNCPDKFCLFKSETKNLLFNDNTECLAKLGGRPTYEEYLGTEYVTAIANLKKCSTSPLLEACAFLTR
B2: Human lactoferrin: human lactoferrin; lactoferrin supplied by SIGMA (protein, UniProt P02788 20-710, looked up)
Lactotransferrin: GRRRSVQWCAVSQPEATKCFQWQRNMRKVRGPPVSCIKRDSPIQCIQAIAENRADAVTLDGGFIYEAGLAPYKLRPVAAEVYGTERQPRTHYYAVAVVKKGGSFQLNELQGLKSCHTGLRRTAGWNVPIGTLRPFLNWTGPPEPIEAAVARFFSASCVPGADKGQFPNLCRLCAGTGENKCAFSSQEPYFSYSGAFKCLRDGAGDVAFIRESTVFEDLSDEAERDEYELLCPDNTRKPVDKFKDCHLARVPSHAVVARSVNGKEDAIWNLLRQAQEKFGKDKSPKFQLFGSPSGQKDLLFKDSAIGFSRVPPRIDSGLYLGSGYFTAIQNLRKSEEEVAARRARVVWCAVGEQELRKCNQWSGLSEGSVTCSSASTTEDCIALVLKGEADAMSLDGGYVYTAGKCGLVPVLAENYKSQQSSDPDPNCVDRPVEGYLAVAVVRRSDTSLTWNSVKGKKSCHTAVDRTAGWNIPMGLLFNQTGSCKFDEYFSQSCAPGSDPRSNLCALCIGDEQGENKCVPNSNERYYGYTGAFRCLAENAGDVAFVKDVTVLQNTDGNNNEAWAKDLKLADFALLCLDGKRKPVTEARSCHLAMAPNHAVVSRMDKVERLKQVLLHQQAKFGRNGSDCPDKFCLFQSETKNLLFNDNTECLARLHGKTTYEKYLGPQYVAGITNLKKCSTSPLLEACEFLRK
B3: turkey lysozyme: turkey lysozyme (protein, UniProt P00703 19-147, looked up)
Lysozyme C: KVYGRCELAAAMKRLGLDNYRGYSLGNWVCAAKFESNFNTHATNRNTDGSTDYGILQINSRWWCNDGRTPGSKNLCNIPCSALLSSDITASVNCAKKIASGGNGMNAWVAWRNRCKGTDVHAWIRGCRL
B4: human lysozyme: human lysozyme (protein, UniProt P61626 19-148, looked up)
Lysozyme C: KVFERCELARTLKRLGMDGYRGISLANWMCLAKWESGYNTRATNYNAGDRSTDYGIFQINSRYWCNDGKTPGAVNACHLSCSALLQDNIADAVACAKRVVRDPQGIRAWVAWRNRCQNRDVRQYVQGCGV

Key:
[1] = system: HSV1; test: Inhibition of HSV1 viral plaques on VERO cells; assay type: cell-based, Herpes Simplex Virus type 1; settings: for MDI50 (dose inhibiting 50% of the viral plaques on VERO cells): HSV1; for Inhibition (%) of viral plaques with various lysozymes: percentage of the control ± standard deviation
[2] = system: VERO cells; test: Toxicity expressed as a minimum toxic dose on 50% of the cells; assay type: cell-based, African green monkey
Protocol: It was carried out as Example 1 except that different amounts of bovine and human lactoferrin were added to the single layers of VERO cells infected with HSV1.
*Toxicity expressed as a minimum toxic dose on 50% of the cells.

[3] = system: HSV1; settings: Current Microbiology 1984; cited from earlier work

| Molecule | MDI50 (dose inhibiting 50% of the viral plaques on VERO cells) [1] [mg/mL] | MTD50 (minimum toxic dose on 50% of the cells) [2] [mg/mL] | Inhibition (%) of viral plaques with various lysozymes ([1]; 0.5 mg/ml) [%] | Inhibition (%) of viral plaques with various lysozymes ([1]; 1 mg/ml) [%] | Inhibition (%) of viral plaques with various lysozymes ([1]; 2 mg/ml) [%] | Inhibition (%) of viral plaques with various lysozymes ([1]; 4 mg/ml) [%] | Inhibition (%) of viral plaques with various lysozymes ([1]; 6 mg/ml) [%] | Inhibition (%) of viral plaques with various lysozymes ([1]; 8 mg/ml) [%] | antiviral / anti-herpetic (HSV1) activity of lysozymes [3] |
| --- | --- | --- | --- | --- | --- | --- | --- | --- | --- |
| B1 | 0.25 | 2 |  |  |  |  |  |  |  |
| B2 | 0.25 | 3 |  |  |  |  |  |  |  |
| B3 |  |  | 10 ± 3 | 45 ± 5 | 55 ± 6 | 68 ± 5 | 80 ± 4 | 89 ± 5 | anti-herpetic (HSV1) activity |
| B4 |  |  | 18 ± 3 | 45 ± 3 | 59 ± 4 | 70 ± 4 | 79 ± 6 | 90 ± 5 | anti-herpetic (HSV1) activity |
